In experiment [1] the target is biotinylated Gβ1γ2 mutant Arg314Ala (rat) (UniProt P54311). The experiment in a line: phage ELISA, % of wild-type b-βγ.
Experiment [2] has as its target biotinylated Gβ1γ2 mutant Asn230Ala (rat) (UniProt P54311). The experiment is described as follows: phage ELISA, % of wild-type b-βγ.
Experiment [3] addresses biotinylated Gβ1γ2 mutant Asp186Ala (rat) (UniProt P54311). The experiment in a line: phage ELISA, % of wild-type b-βγ.
Experiment [4] has as its target biotinylated Gβ1γ2 mutant Asp246Ser (rat) (UniProt P54311). The experiment in a line: phage ELISA, % of wild-type b-βγ.
Experiment [5] concerns the target biotinylated Gβ1γ2 mutant His311Ala (rat) (UniProt P54311). The experiment in a line: phage ELISA, % of wild-type b-βγ.
Experiment [6] concerns the target biotinylated Gβ1γ2 mutant Leu117Ala (rat) (UniProt P54311). The experiment is described as follows: phage ELISA, % of wild-type b-βγ.
Experiment [7] has as its target biotinylated Gβ1γ2 mutant Lys57Ala (rat) (UniProt P54311). The experiment in a line: phage ELISA, % of wild-type b-βγ.
Experiment [8] concerns the target biotinylated Gβ1γ2 mutant Met101Ala (rat) (UniProt P54311). The experiment in a line: phage ELISA, % of wild-type b-βγ.
The target in experiment [9] is biotinylated Gβ1γ2 mutant Met188Ala (rat) (UniProt P54311). The experiment in a line: phage ELISA, % of wild-type b-βγ.
Chain of biotinylated Gβ1γ2 mutant Met188Ala (rat) (P54311 whole entry M188A, chain 1 of 2): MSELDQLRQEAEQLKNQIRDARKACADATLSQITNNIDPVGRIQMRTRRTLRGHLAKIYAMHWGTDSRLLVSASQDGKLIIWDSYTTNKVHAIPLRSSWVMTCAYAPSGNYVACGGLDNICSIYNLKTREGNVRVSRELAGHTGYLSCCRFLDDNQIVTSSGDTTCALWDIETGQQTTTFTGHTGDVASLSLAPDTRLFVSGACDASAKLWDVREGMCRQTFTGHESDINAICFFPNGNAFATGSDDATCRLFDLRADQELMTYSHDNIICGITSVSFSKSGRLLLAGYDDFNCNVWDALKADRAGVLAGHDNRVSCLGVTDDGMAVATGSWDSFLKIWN
Chain of biotinylated Gβ1γ2 mutant Met188Ala (rat) (P63212 2-68, chain 2 of 2, further chain): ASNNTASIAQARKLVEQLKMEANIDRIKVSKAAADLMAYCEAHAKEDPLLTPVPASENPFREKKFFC
Experiment [10] concerns the target biotinylated Gβ1γ2 mutant Trp332Ala (rat) (UniProt P54311). The experiment in a line: phage ELISA, % of wild-type b-βγ.
The target in experiment [11] is biotinylated Gβ1γ2 mutant Trp99Ala (rat) (UniProt P54311). The experiment in a line: phage ELISA, % of wild-type b-βγ.
Chain of biotinylated Gβ1γ2 mutant Trp99Ala (rat) (P54311 whole entry W99A, chain 1 of 2): as the sequence (P54311 whole entry M188A, chain 1 of 2) above, with W99A, A188M counted along it
Chain of biotinylated Gβ1γ2 mutant Trp99Ala (rat) (P63212 2-68, chain 2 of 2, further chain): as the sequence (P63212 2-68, chain 2 of 2, further chain) above
The target of experiment [12] is biotinylated Gβ1γ2 mutant Tyr145Ala (rat) (UniProt P54311). The experiment in a line: phage ELISA, % of wild-type b-βγ.
Chain of biotinylated Gβ1γ2 mutant Tyr145Ala (rat) (P54311 whole entry Y145A, chain 1 of 2): as the sequence (P54311 whole entry M188A, chain 1 of 2) above, with Y145A, A188M counted along it
Chain of biotinylated Gβ1γ2 mutant Tyr145Ala (rat) (P63212 2-68, chain 2 of 2, further chain): as the sequence (P63212 2-68, chain 2 of 2, further chain) above
Experiment [13] has as its target biotinylated Gβ1γ2 mutant Tyr59Ala (rat) (UniProt P54311). The experiment is described as follows: phage ELISA, % of wild-type b-βγ.
In experiment [14] the target is T1, biotinylated Gβ1γ2, wild-type (BAP-rat Gβ1 with Gγ2) (rat, UniProt P54311 1-340; P63212 2-68, biotin on the lysine acceptor residue of the BAP).
T1 construct: immobilized on streptavidin in the assays; also called b-βγ; b-Gβ1γ2; not shown: 20 amino acid biotin acceptor peptide (BAP) fused to the N-terminus
T1 sequence (P54311 whole entry, chain 1 of 2, the tested form may be a part): as the sequence (P54311 whole entry M188A, chain 1 of 2) above, with A188M counted along it
T1 sequence (P63212 2-68, chain 2 of 2): as the sequence (P63212 2-68, chain 2 of 2, further chain) above
The experiment in a line: phage ELISA on immobilized b-βγ. The protocol: Phage ELISA assays used to assess peptide binding to wild-type and mutant b-βγ were performed according to standard methods (Smrcka and Scott (2002) Methods Enzymol. 344:557-76). Briefly, 1 μg streptavidin was immobilized in the well of a […] overnight at 4° C. The wells were blocked with 100 μL of 2% bovine serum albumin (BSA) in Tris-buffered saline (TBS) for 1 hour at 4° C. followed by three washes of 1×TBS/0.5% TWEEN®. […] The wells were washed, followed by the addition of 1×10⁶ to 1×10¹⁰ phage particles and incubated at 4° C. for 3 hours. The wells were then washed six times with TBS/0.5% TWEEN® followed by addition of 40 μL of 1:5000 dilution of anti-M13 antibody (Pharmacia, Uppsala, Sweden) and incubated at room temperature for 1 hour. The wells were washed, followed by the addition of 40 μL of (2,2′-Azino-bis(3-ethylbenzthiazoline)-6-sulfonic acid (ABTS) and the […] reaction was monitored at 405 nm. Non-specific binding was subtracted for each reading.

Chain of biotinylated Gβ1γ2 mutant Asn230Ala (rat) (P54311 whole entry N230A, chain 1 of 2): as the sequence (P54311 whole entry M188A, chain 1 of 2) above, with A188M, N230A counted along it
Chain of biotinylated Gβ1γ2 mutant Asn230Ala (rat) (P63212 2-68, chain 2 of 2, further chain): as the sequence (P63212 2-68, chain 2 of 2, further chain) above
Chain of biotinylated Gβ1γ2 mutant Trp332Ala (rat) (P54311 whole entry W332A, chain 1 of 2): as the sequence (P54311 whole entry M188A, chain 1 of 2) above, with A188M, W332A counted along it
Chain of biotinylated Gβ1γ2 mutant Trp332Ala (rat) (P63212 2-68, chain 2 of 2, further chain): as the sequence (P63212 2-68, chain 2 of 2, further chain) above
Chain of biotinylated Gβ1γ2 mutant Tyr59Ala (rat) (P54311 whole entry Y59A, chain 1 of 2): as the sequence (P54311 whole entry M188A, chain 1 of 2) above, with Y59A, A188M counted along it
Chain of biotinylated Gβ1γ2 mutant Tyr59Ala (rat) (P63212 2-68, chain 2 of 2, further chain): as the sequence (P63212 2-68, chain 2 of 2, further chain) above
Chain of biotinylated Gβ1γ2 mutant Lys57Ala (rat) (P54311 whole entry K57A, chain 1 of 2): as the sequence (P54311 whole entry M188A, chain 1 of 2) above, with K57A, A188M counted along it
Chain of biotinylated Gβ1γ2 mutant Lys57Ala (rat) (P63212 2-68, chain 2 of 2, further chain): as the sequence (P63212 2-68, chain 2 of 2, further chain) above
Chain of biotinylated Gβ1γ2 mutant Asp186Ala (rat) (P54311 whole entry D186A, chain 1 of 2): as the sequence (P54311 whole entry M188A, chain 1 of 2) above, with D186A, A188M counted along it
Chain of biotinylated Gβ1γ2 mutant Asp186Ala (rat) (P63212 2-68, chain 2 of 2, further chain): as the sequence (P63212 2-68, chain 2 of 2, further chain) above
Chain of biotinylated Gβ1γ2 mutant Met101Ala (rat) (P54311 whole entry M101A, chain 1 of 2): as the sequence (P54311 whole entry M188A, chain 1 of 2) above, with M101A, A188M counted along it
Chain of biotinylated Gβ1γ2 mutant Met101Ala (rat) (P63212 2-68, chain 2 of 2, further chain): as the sequence (P63212 2-68, chain 2 of 2, further chain) above
Chain of biotinylated Gβ1γ2 mutant Arg314Ala (rat) (P54311 whole entry R314A, chain 1 of 2): as the sequence (P54311 whole entry M188A, chain 1 of 2) above, with A188M, R314A counted along it
Chain of biotinylated Gβ1γ2 mutant Arg314Ala (rat) (P63212 2-68, chain 2 of 2, further chain): as the sequence (P63212 2-68, chain 2 of 2, further chain) above
Chain of biotinylated Gβ1γ2 mutant Leu117Ala (rat) (P54311 whole entry L117A, chain 1 of 2): as the sequence (P54311 whole entry M188A, chain 1 of 2) above, with L117A, A188M counted along it
Chain of biotinylated Gβ1γ2 mutant Leu117Ala (rat) (P63212 2-68, chain 2 of 2, further chain): as the sequence (P63212 2-68, chain 2 of 2, further chain) above
Chain of biotinylated Gβ1γ2 mutant Asp246Ser (rat) (P54311 whole entry D246S, chain 1 of 2): as the sequence (P54311 whole entry M188A, chain 1 of 2) above, with A188M, D246S counted along it
Chain of biotinylated Gβ1γ2 mutant Asp246Ser (rat) (P63212 2-68, chain 2 of 2, further chain): as the sequence (P63212 2-68, chain 2 of 2, further chain) above
Chain of biotinylated Gβ1γ2 mutant His311Ala (rat) (P54311 whole entry H311A, chain 1 of 2): as the sequence (P54311 whole entry M188A, chain 1 of 2) above, with A188M, H311A counted along it
Chain of biotinylated Gβ1γ2 mutant His311Ala (rat) (P63212 2-68, chain 2 of 2, further chain): as the sequence (P63212 2-68, chain 2 of 2, further chain) above

With SCKRTKAQILLAPCT (Group I; also called Cl) [phage C1 (SCKRTKAQILLAPCT)], the % of Wild-Type Signal in [1] was found to be 2.8%; in experiment [2] it was 19.8%; in experiment [3] it was 1.4%; in [4] it was 2.3%; in experiment [5], 3%; in experiment [6], 5.2%. Also, the % of Wild-Type Signal in [7] was 0.1%; in [8], 70.5%; in experiment [9], 4%; in experiment [10], -0.3%; in experiment [11] it was 1.2%; in [12] it was 88%. In [13], the % of Wild-Type Signal came to 0.3%. The binding result in [14] is “binds”.
Take SCEKRYGIEFCT (Group III) [phage C4 (SCEKRYGIEFCT)]: the binding result in experiment [14] is reported as “binds”.
Turning to SCEKRYGIEFCT [phage C4 (…)], the % of Wild-Type Signal in [1] turned out to be 1.4%; in experiment [2] it was 11.5%; in experiment [3] it was 51.3%; in experiment [4] it was 35.8%; in experiment [5], 36.5%; in experiment [6], 18.4%. The % of Wild-Type Signal was -0.2% in experiment [7]; 61.2% in experiment [8]; 128% in experiment [9]; 1.7% in experiment [10]; 67% in experiment [11]; 4.4% in experiment [12]. In experiment [13], the % of Wild-Type Signal stood at 7.6%.
Take SIGKALFILGYPDYD [phage 3.14 (SIGKALFILGYPDYD)]: the % of Wild-Type Signal in experiment [1] was 50.2%; in experiment [2], 22.4%; in experiment [3], 14.4%; in experiment [4] it was 66.5%; in [5] it was 93.4%; in experiment [6] it was 2.1%. Also, the % of Wild-Type Signal came to 18.6% in experiment [7]; 26.8% in experiment [8]; 2.5% in experiment [9]; 7.1% in experiment [10]; 66% in experiment [11]; 0.8% in [12]. Also, in experiment [13], the % of Wild-Type Signal came out at 24.7%. Besides, the binding result in experiment [14] is “binds”.
As to LCSKAYLLLGQTC (Group I) [phage 2F (LCSKAYLLLGQTC)], the % of Wild-Type Signal in experiment [1] is 2.4%; in experiment [2] it was 27.6%; in experiment [3], 2.4%; in experiment [4], 0.6%; in experiment [5] it was 23.6%; in experiment [6] it was 2.1%. The % of Wild-Type Signal in experiment [7] was -4.5%; in experiment [8], 6%; in [9], 8.5%; in [10], -1.5%; in [11] it was 32.6%; in experiment [12], 0.1%. In addition, the % of Wild-Type Signal in experiment [13] is -2%. In addition, in experiment [14], the binding result is on record as “binds”.
With WCPPKAMTQLGIKAC (Group II) [phage C14 (WCPPKAMTQLGIKAC)], the % of Wild-Type Signal in experiment [1] came out at 3.9%; in [2], 60%; in experiment [3], 3.6%; in experiment [4], 6.3%; in [5], 6.1%; in [6] it was 3.8%. Also, the % of Wild-Type Signal in experiment [7] was found to be 3%; in experiment [8] it was 1.1%; in experiment [9], 9.9%; in experiment [10], 1.6%; in experiment [11], 10.1%; in [12] it was 1.9%. The % of Wild-Type Signal in [13] was 3.6%. Also, the binding result in experiment [14] is given as “binds”.

Values taken from patent publication US20090221691A1 (UNIVERSITY OF ROCHESTER, published 2009).
